From PMC7005868

Target: CD63-GLucC (CD63 truncated at Val206 fused to the C-terminal fragment of Gaussia luciferase) (UniProt P08962)
Assay: split reporter (BiFC, NanoBiT); Gaussia luciferase protein complementation assay (PCA); GLucN and GLucC fusion plasmids co-transfected 1:1 into HEK293FT; membranes disrupted by two freeze-thaw cycles; luminescence with 10 uM coelenterazine

Sequence of UniProt P08962 (P08962 1-206): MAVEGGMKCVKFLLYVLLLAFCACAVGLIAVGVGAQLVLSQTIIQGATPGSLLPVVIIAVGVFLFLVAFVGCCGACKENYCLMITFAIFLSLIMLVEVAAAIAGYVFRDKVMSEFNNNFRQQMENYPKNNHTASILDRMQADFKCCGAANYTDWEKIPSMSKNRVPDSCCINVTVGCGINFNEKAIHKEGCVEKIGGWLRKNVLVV

loss of the ability to bind CD63 against full-length TIMP-1: 83%
Substance: GLucN-T1ΔC (TIMP-1 truncated after L168) (domain or fragment)
